According to PMC6561022, “β-Lactam Antibiotics Enhance the Pathogenicity of Methicillin-Resistant Staphylococcus aureus via SarA-Controlled Lipoprotein-Like Cluster Expression”:

T1: SarA-his (Staphylococcus aureus N315, UniProt Q7A732 1-124)
T1 sequence: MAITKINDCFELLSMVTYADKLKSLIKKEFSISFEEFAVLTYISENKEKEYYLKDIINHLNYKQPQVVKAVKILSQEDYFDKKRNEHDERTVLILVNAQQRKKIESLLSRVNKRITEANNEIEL


Target: T1, SarA-his
Assay: EMSA; SarA-his 0-240 pM (so in the source), 10 pmol DNA; 10 mM HEPES pH 7.6, 1 mM EDTA, 2 mM DTT, 50 mM KCl, 0.05% Triton X-100, 5% glycerol; 20 min room temperature; […]
Details: protein: recombinant; tags: N-terminal His6 (pET28a); chain copies: 2; label: none (GelRed stain); blunt

Binder | binding result
lpl-PM (GC-rich SarA box mutant) (dsDNA) DNA 1: CCACGAGGGGGGGGGCGGGGGGGTTCCTCTAGTATTATTAATATTGGAATTTGAAC DNA 2: GTTCAAATTCCAATATTAATAATACTAGAGGAACCCCCCCGCCCCCCCCCTCGTGG | no binding
lpl-P (lpl cluster promoter, SarA box) (dsDNA) DNA 1: CCACGAGGATTTAATCATAAAATTTCCTCTAGTATTATTAATATTGGAATTTGAAC DNA 2: GTTCAAATTCCAATATTAATAATACTAGAGGAAATTTTATGATTAAATCCTCGTGG | binds
